Data on 18 molecules can be found in publication PMC10796322, “Molecular switching in transcription through splicing and proline-isomerization regulates stress responses in plants” (Nature Communications, 2024).

The term Kd denotes the equilibrium constant for the complex coming apart. In general, koff refers to a measure of how fast the partners let go of each other. The low end stands for a long-lived complex, the high end for a short-lived complex. As usually defined, the kon is a measure of how fast the partners come together. In general, stoichiometry N refers to a count of units in the complex or per binding partner.

T1: Med25-ACID_(532-680), activator interaction domain (ACID) of mediator complex subunit 25 (Arabidopsis thaliana, UniProt Q7XYY2 532-680)
T1 chain: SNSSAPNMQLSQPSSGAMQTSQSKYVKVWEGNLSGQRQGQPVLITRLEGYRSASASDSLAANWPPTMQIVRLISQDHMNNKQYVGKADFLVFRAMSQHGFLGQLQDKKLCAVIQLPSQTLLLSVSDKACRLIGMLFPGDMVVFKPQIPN

T2: DREB2A_(151-335) (Arabidopsis thaliana, UniProt O82132 151-335)
T2 construct: also called C-terminal intrinsically disordered region (IDR) of DREB2A; source: E. coli BL21 DE3, purified (glutathione Sepharose, TEV cleavage, SEC); not shown: GST, N-terminal, cleaved
T2 sequence (looked up): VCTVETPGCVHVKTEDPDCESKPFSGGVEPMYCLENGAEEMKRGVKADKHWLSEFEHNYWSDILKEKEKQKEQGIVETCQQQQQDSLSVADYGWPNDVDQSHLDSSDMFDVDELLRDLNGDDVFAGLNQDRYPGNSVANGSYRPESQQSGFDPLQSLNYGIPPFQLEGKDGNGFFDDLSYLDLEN

T3: Med25-ACID R568A (Arabidopsis thaliana, UniProt Q7XYY2 532-680, R568A)
T3 sequence: T1 chain with R37A

B1: FITC-DREB2A_(234-276) (domain or fragment)
chain: QDSLSVADYGWPNDVDQSHLDSSDMFDVDELLRDLNGDDVFAG
modifications: also: FITC label, position not given here
B2: FITC-DREB2A_(234-276) (domain or fragment, Arabidopsis thaliana, UniProt O82132 234-276, looked up)
chain: B1 chain
modifications: also: single FITC label, position not given here
notes: also called FITC-labeled ABS-RIM; single-labeled FITC-DREB2A; source: E. coli BL21 DE3, purified; labeled with a FITC labeling kit (Pierce) and purified by reversed phase chromatography; not shown: GST, N-terminal, cleaved
B3: FITC-DREB2A_(234-256) synthetic peptide (peptide, UniProt O82132 234-256, looked up)
peptide: QDSLSVADYGWPNDVDQSHLDSS
modifications: also: FITC label, position not given here
notes: DREB2A, Arabidopsis thaliana, AT5G05410, residues 234-256; also called FITC-labeled ABS; source: synthetic peptide, bought: TAG Copenhagen A/S
B4: Med25-ACID_(532-680), activator interaction domain (ACID) of mediator complex subunit 25 (domain or fragment, Arabidopsis thaliana, UniProt Q7XYY2 532-680, looked up)
chain: T1 chain
notes: 15N- or 13C,15N-labelled in the NMR titrations; unlabelled in ITC, CEST and stopped-flow; also called AtMed25-ACID; ACID domain; source: E. coli BL21 DE3, purified (glutathione Sepharose, TEV cleavage, cation exchange, SEC); not shown: GST, N-terminal, cleaved
B5: DREB2A_(255-276) (RIM) (domain or fragment)
chain: SSDMFDVDELLRDLNGDDVFAG
B6: DREB2A_(195-276) (domain or fragment, Arabidopsis thaliana, UniProt O82132 195-276, looked up)
chain: VKADKHWLSEFEHNYWSDILKEKEKQKEQGIVETCQQQQQDSLSVADYGWPNDVDQSHLDSSDMFDVDELLRDLNGDDVFAG
notes: source: E. coli BL21 DE3, purified (glutathione Sepharose, TEV cleavage, SEC); not shown: GST, N-terminal, cleaved

In one assay the target is T4, Med25-ACID (Arabidopsis thaliana, UniProt Q7XYY2).
T4 construct: Med25-ACID532-680 (AT1G25540), expressed in E. coli with N-terminal GST tag removed by TEV protease
Conditions: SD. As to the method: All protein fragments were produced with an N-terminal Glutathione-S-transferase (GST) tag which was removed using Tobacco Etch Virus (TEV) protease and expressed from E.coli BL21 DE3 cells. DREB2A (AT5G05410) variants were expressed at 37 °C for three hours. The DREB2A splice variant (AT5G05410.2) was based on GenBank ID CD530293[21]. Due to stability and aggregation considerations, Med25-ACID (AT1G25540) was expressed with additional N-terminal residues. Expression of Med25-ACID532-680 was induced at high OD (0.8-1.0) and cultured overnight at 18 °C. Cells were resuspended in 20 mM Tris-HCl pH 8.0, 100 mM NaCl lysis buffer and sonicated. The lysate was incubated with glutathione Sepharose for one hour and washed using the lysis buffer. Aliquots of 5 mL resin were resuspended in 20 mL of lysis buffer with 5 mM dithiothreitol (DTT) and 1 mM EDTA and the protein was cleaved overnight at 4 °C using TEV protease. For DREB2A, cleaved protein was freeze-dried and buffer-changed to experimental buffer using size exclusion chromatography. Med25-ACID was further purified using cation exchange (Source 15 S) at pH 8.5 and the buffer was changed using size exclusion chromatography (Superdex S75 10/300 GL). Isotope-labeled proteins were produced by growing the initial culture in lysogenic broth and transferring to half volume M9 minimal media 30 min before induction.
ITC was performed on either a MicroCal ITC200 or a Malvern Pananalytical PEAQ-ITC. All ITC experiments were performed using a 50 mM HEPES pH 7.4, 100 mM NaCl and 0.5 mM tris(2-carboxyethyl)phosphine (TCEP) buffer. All experiments were performed using a ~ 1:10 cell to syringe protein concentration ratio. For high-affinity DREB2A fragments, the cell concentration was around 15 µM, while lower-affinity interaction experiments used higher concentrations. Samples were degassed by centrifuging at 20,000 x g for 20 minutes at experimental temperature. For three DREB2A fragments, experiments were performed over a range of temperatures to determine the ΔCp. Reported thermodynamic parameters are given at 25 °C. Data were analyzed using Origin and inhouse scripts using the one-set-of-sites model as documented by MicroCal and Origin. Dilution heats were fitted using an offset parameter. Most experiments were performed using a 0.5 µl initial injection, which was discarded in the analysis, followed by 18 injections of 2.0 µl.

The target of assay [1] is RCD1 RST (Arabidopsis thaliana) (UniProt Q8RY59). The note with it: cited from earlier work.
For assay [2], the target named is Med25-ACID_(532-680), activator interaction domain (ACID) of mediator complex subunit 25 (Arabidopsis thaliana) (UniProt Q7XYY2). Briefly: NMR titration; 15N-HSQC; 100-150 µM 15N-labeled Med25-ACID(532-680) at constant concentration with increasing DREB2A ligand; 20 mM Na2HPO4/NaH2PO4 pH 6.5, 100 mM NaCl; chemical shift perturbations.
In assay [3] the target is T1, Med25-ACID_(532-680), activator …. The assay is described as follows: stopped-flow, cis proline isomer, 10 °C.
The target is the same in assay [4]. The assay is described as follows: stopped-flow, trans proline isomer, 10 °C.
In assay [5] the target is B4. Briefly: stopped-flow fluorescence; FITC-DREB2A (50 nM 234-276 or 250 nM 234-256) mixed with increasing Med25-ACID(532-680), pseudo-first-order; dissociation by competitive displacement with unlabeled DREB2A; 50 mM HEPES pH 7.4, 100 mM NaCl, 1 mM DTT; Fig. 7 legend gives kinetic rate constants at 10 °C. The note with it: both partners purified.
In assay [6] the target is T1, Med25-ACID_(532-680), activator …. Briefly: stopped-flow, 10 °C.
Assay [7] has the same target. The assay is described as follows: stopped-flow, 10 °C.
In another assay the target is T2, DREB2A_(151-335). The assay is described as follows: ITC; 25 °C; 50 mM HEPES pH 7.4, 100 mM NaCl, 0.5 mM TCEP; ~1:10 cell to syringe concentration ratio, cell around 15 µM for high-affinity fragments; one-set-of-sites model; which protein was in the cell is not stated. The note with it: both partners purified. A general note: In ITC the heat of successive injections is recorded.

Assay [8] deals with T1, Med25-ACID_(532-680), activator …. The assay is described as follows: NMR; first site (Kd,1), competitive two binding sites model.
Assay [9] has the same target. The assay is described as follows: NMR; second site (Kd,2), competitive two binding sites model.
The target in the next assay is T3, Med25-ACID R568A. The assay is described as follows: ITC.
For assay [10], the target named is B4. Briefly: ITC; 25 °C; 50 mM HEPES pH 7.4, 100 mM NaCl, 0.5 mM TCEP; ~1:10 cell to syringe concentration ratio, cell around 15 µM for high-affinity fragments; one-set-of-sites model; which protein was in the cell is not stated. Conditions: both partners purified.

Positions count from the first letter of the chain named. “And” between values parts separate entries of the source, which are not always exact repeats. Identical values can stand only once. No end group written: not given here.

At Med25-ACID, DREB2A151-335 [151–335] gave a dissociation constant Kd of 0.54 ± 0.04 µM.
The same measure, in the same setting: for DREB2A195-276 L237A the value was 2.4 ± 0.3 µM.
For DREB2A (from UniProt O82132), the dissociation constant Kd in assay [1] was 0.012 µM.
As to DREB2A195-276 F274A, the Kd on Med25-ACID was found to be 0.66 ± 0.09 µM.
The molecule DREB2A195-276 F259A yielded a dissociation constant (Kd) on Med25-ACID of 0.55 ± 0.05 µM.
Same read-out and setting: for DREB2A195-276 W244A the value was 1.9 ± 0.2 µM.
As to DREB2A234-335 [234–335], the Kd at Med25-ACID was found to be 0.44 ± 0.06 µM.
For DREB2A195-276 D241A, the affinity on Med25-ACID, expressed as Kd, was 2 ± 0.7 µM.
Still for that read-out and setting: for DREB2A195-276 E263P the value was 0.58 ± 0.04 µM; for DREB2A195-276 V239A, 2 ± 0.2 µM.
On the same count and under the same terms, for “DREB2A195-335,Δ244-276 (splice variant fragment) [195–335 ∆244–276]” the value was 5.4 ± 0.6 µM.
Consider “DREB2A_(255-276) (RIM) (from UniProt O82132 255-276) (domain or fragment)”, for which, in assay [2], the KD (binding surface site) fell in the range of 3000 to 6000 µM; the KD (binding surface site, by NMR) was found to be 5000 µM; the KD (groove site) is 200 to 400 µM.
With B1, the koff in assay [3] is 6 s⁻¹; in assay [4], 24 s⁻¹.
Take B2: in [5], the binding result is given as “binds”.
The molecule B3 displayed a koff in [6] of 54 s⁻¹. In assay [7], this molecule came in with a Kd of 1.8 µM. This molecule came in with an association rate constant (kon) in [5] of 2.9e+07 ± 1e+06 M⁻¹ s⁻¹.
For the molecule B4, the Kd with DREB2A_(151-335) was determined as 0.54 µM.
Regarding B5, the Kd is 280 µM in assay [8] and 4700 µM in [9].
Regarding B6, the Kd with Med25-ACID R568A is 3.2 µM and 2.9 µM. Further, in [10], the Kd turned out to be 0.45 µM, the dH is -51.2 kJ/mol and the “stoichiometry N” value turned out to be 1.09.
